Results published in patent publication US20190231706A1, “SURFACTANT PEPTIDE NANOSTRUCTURES AND USES IN DRUG DELIVERY” (3-D Matrix, Ltd., priority 2017, published 2019).
Read-outs that look alike come from different tables or passages of the source. Where a SMILES comes first, the peptide text is derived from it.

How the values were obtained:
MCF-7 cell = assay: Cell toxicity, luciferase emission with peptides only or peptides/negative control siRNA; assay type: cell-based
From the text: siRNA (Luciferase GL3 duplex) was complexed with Ac-A4K-NH2 (SEQ ID NO: 55), Ac-A3KA3-NH2 (SEQ ID NO:55), Ac-A6K-NH2 (SEQ ID NO: 105), and a control agent (DharmaFECT 1; commercially available lipid transfection agent). The siRNA and peptide complexes arranged into nanospherical structures. A composition comprising the nanospherical structures was provided to tumor cells (MCF-7 cell; breast cancer cell line) in vitro to preliminary transfection efficacy and cell toxicity. Two methods were utilized for the present Example. For Method 1, MCF-7 cells were cultured on a plate. The siRNA and peptide complexes were added into the culture medium over the cells. The culture dish (96 wells) containing the siRNA and peptide complexes and the cells was incubated for 48 hours. For Method 2, a concentrated suspension of MCF-7 cells (5×10^6 cells/ml) was prepared in a tube. The siRNA and peptide complexes were applied into the suspension. The cell mixture was incubated for 1 hour in the tube. The cell mixture was plated in the culture dish and incubated for 48 hours. Luciferase emission from each sample was observed. Table 4 summarizes experimental conditions e.g., concentration of siRNA and peptide surfactants, charge ratio, and types of siRNA (e.g., Luciferase GL3 duplex or negative control thereof). The buffer used in this Example was Opti-MEM1 (serum-free). As control samples, buffer only, negative control (NC) siRNA with or without the peptide surfactants, DharmaFECT 1 with or without siRNA (or NC siRNA) were tested with the cells. Cell toxicity.

[1] = AFM imaging of peptide and peptide/siRNA nanostructure; assay type: physicochemical; details: for Diameter of the nanospheres / Nanostructure of peptide: peptide alone
From the text: Nanostructure plays an important role in formulation of agents (e.g., therapeutics, such as siRNA).

mouse tumor model = assay: Delivery of siRNA to tumor cells in vivo; details: siRNA/peptide complex administered to mouse tumor model
Description: The present Example describes, among other things, an exemplary use of surfactant peptides for delivery of siRNA to tumor cells in vivo. siRNA is complexed with Ac-A4K-NH2 (SEQ ID NO: 55), Ac-A3KA3-NH2 (SEQ ID NO:55), Ac-A6K-NH2 (SEQ ID NO: 105), or a control peptide. The siRNA and peptide complexes arrange into nanospherical structures. A composition comprising the nanospherical structures is administered to a mouse tumor model. One or more cancer associated genes is suppressed and the size of the tumor decreases.

[2] = Zeta potential by Zetasizer Nano ZS; assay type: physicochemical; details: 0.5 w/v % in an aqueous solution; in mV (unit assumed)
Description: Zeta potentials were measured by Zetasizer Nano ZS (Malvern) to characterize electrokinetic potential of the complex. Ac-A4K-NH2 (SEQ ID NO:55) concentration was 0.5 w/v % in an aqueous solution. siRNA (ribophorin II, RPN2) concentration was controlled for their various charge ratios of A4K/siRNA. The zeta potential of Ac-A4K-NH2 (SEQ ID NO:55) alone was +21.9, which represents that the surface of A4K nanosphere was positively charged because of the primary amine of lysine in Ac-A4K-NH2 (SEQ ID NO:55). As the equipment only detects dispersed phases larger than about 3.8 nm and the size of siRNA in water is about 2 nm in diameter, the measurement only reads the electrokinetic potential of Ac-A4K-NH2 (SEQ ID NO:55) or Ac-A4K-NH2 (SEQ ID NO:55)/siRNA complexes, not unassociated siRNA.

[3] = Transmittance study of surfactant peptides and peptide/siRNA complexes in aqueous solution; assay type: physicochemical; details: for Transmittance (%) With siRNA (peptide %/siRNA %) 0.1%/0.01%: peptide 0.1%/siRNA 0.01%; for Transmittance (%) With siRNA (peptide %/siRNA %) 0.1%/0.01% / Transmittance (%) With siRNA (peptide %/siRNA %) 0.5%/0.05% / Transmittance (%) Peptide alone 0.1% (w/v) / Transmittance (%) Peptide alone 0.5% (w/v): aqueous solution pH 7.5; for Transmittance (%) With siRNA (peptide %/siRNA %) 0.1%/0.01% / Transmittance (%) With siRNA (peptide %/siRNA %) 0.5%/0.05%: * = significantly cloudy and phase-separated; for Transmittance (%) With siRNA (peptide %/siRNA %) 0.5%/0.05%: peptide 0.5%/siRNA 0.05%; for Appearance of peptide mixed with siRNA in transmittance study: peptide 0.1% and 0.5% (w/v) with siRNA 0.01% and 0.05% (w/v), pH 7.5
[4] = literature reports; cited from earlier work
[5] = MCF-7, peptide only or with NC siRNA, 48 hours, Methods 1 and 2

With `CC(=O)N[C@@H](C)C(=O)N[C@@H](C)C(=O)N[C@@H](C)C(=O)N[C@@H](CCCCN)C(=O)N[C@@H](C)C(=O)N[C@@H](C)C(=O)N[C@@H](C)C(N)=O` [Ac-A3KA3-NH2, Ac-AAAKAAA-NH2] (Ac-AAAKAAA-NH2) the “Cell toxicity (decrease in luciferase emission) compared with DharmaFECT” value (MCF-7 cell) was “less toxic than DharmaFECT”, the “Diameter of the nanospheres” value [1] was 30 nm and the Nanostructure of peptide [1] was “nanospheres (i.e., spherical nanovesicles)”. For the same molecule, the “Cancer associated gene expression” value (mouse tumor model) was “suppressed” and the “Size of the tumor” value (mouse tumor model) was “decreases”.

With `CC(=O)N[C@@H](C)C(=O)N[C@@H](C)C(=O)N[C@@H](C)C(=O)N[C@@H](C)C(=O)N[C@@H](CCCCN)C(N)=O` [Ac-A4K-NH2, Ac-AAAAK-NH2] (Ac-AAAAK-NH2) the “Cell toxicity (decrease in luciferase emission) compared with DharmaFECT” value (MCF-7 cell; [5]) was “less toxic than DharmaFECT”, the “Diameter of the nanospheres” value [1] was 85 nm and the Nanostructure of peptide [1] was “nanospheres (i.e., spherical nanovesicles)”. For the same molecule, the “Cancer associated gene expression” value (mouse tumor model) was “suppressed”, the “Size of the tumor” value (mouse tumor model) was “decreases” and the “Zeta potential of peptide alone” value [2] was “+21.9”.

For `CC(=O)N[C@@H](C)C(=O)N[C@@H](C)C(=O)N[C@@H](C)C(=O)N[C@@H](C)C(=O)N[C@@H](C)C(=O)N[C@@H](C)C(=O)N[C@@H](CCCCN)C(N)=O` [Ac-A6K-NH2, reference compound] (Ac-AAAAAAK-NH2), the “Cell toxicity (decrease in luciferase emission) compared with DharmaFECT” value (MCF-7 cell; [5]) was “less toxic than DharmaFECT”, the “Thickness of each layer of double layer structure” value ([1]; 0.1% (w/v)) was 0.8 nm and the “Cancer associated gene expression” value (mouse tumor model) was “suppressed”. For the same molecule, the “Size of the tumor” value (mouse tumor model) was “decreases”.

In the case of “A6K2A6: exemplary conventional self-assembling peptide for comparison (AAAAAAKKAAAAAA) [reference compound]”, the “Transmittance (%) With siRNA (peptide %/siRNA %) 0.1%/0.01%” value [3] is reported as 62.9* %, the “Transmittance (%) With siRNA (peptide %/siRNA %) 0.5%/0.05%” value [3] is reported as 12.7* % and the “Transmittance (%) Peptide alone 0.1% (w/v)” value [3] is reported as 98.5%. For the same molecule, the “Transmittance (%) Peptide alone 0.5% (w/v)” value [3] was 83.1%.

For AAAAAAK [A6K, reference compound], the “Appearance of peptide mixed with siRNA in transmittance study” value (“Appearance of peptide mixed with siRNA” for short) [3] was “cloudy and phase separated”, the “Transmittance (%) With siRNA (peptide %/siRNA %) 0.1%/0.01%” value [3] was 38.4* % and the “Transmittance (%) With siRNA (peptide %/siRNA %) 0.5%/0.05%” value [3] was 15.3* %. The “Transmittance (%) Peptide alone 0.1% (w/v)” value [3] was 94.8%, the “Transmittance (%) Peptide alone 0.5% (w/v)” value [3] was 98.7% and the “Nanostructure / self-assembly (previously reported)” value [4] was “nanotubes”.

In the case of “AAAAAK [A5K, exemplary conventional self-assembling peptide for comparison, reference compound]”, the “Appearance of peptide mixed with siRNA” value [3] is reported as “cloudy and phase separated”, the “Transmittance (%) With siRNA (peptide %/siRNA %) 0.1%/0.01%” value [3] is reported as 95.5% and the “Transmittance (%) With siRNA (peptide %/siRNA %) 0.5%/0.05%” value [3] is reported as 22.7* %. For the same molecule, the “Transmittance (%) Peptide alone 0.1% (w/v)” value [3] was 99.2% and the “Transmittance (%) Peptide alone 0.5% (w/v)” value [3] was 71.9%.

With AAAAK [A4K] the “Appearance of peptide mixed with siRNA” value [3] was “transparent and substantially without phase separation”, the “Transmittance (%) With siRNA (peptide %/siRNA %) 0.1%/0.01%” value [3] was 98.7% and the “Transmittance (%) With siRNA (peptide %/siRNA %) 0.5%/0.05%” value [3] was 97.5%. The “Transmittance (%) Peptide alone 0.1% (w/v)” value [3] was 99.4%, the “Transmittance (%) Peptide alone 0.5% (w/v)” value [3] was 97.8% and the Nanostructure of peptide [1] was “nanospheric structures (spherical nanovesicles)”. For the same molecule, the “Nanostructure / self-assembly (previously reported)” value [4] was “does not exhibit relevant self-assembly in water”.

With AAAK [A3K] the “Appearance of peptide mixed with siRNA” value [3] was “transparent and substantially without phase separation”, the “Transmittance (%) With siRNA (peptide %/siRNA %) 0.1%/0.01%” value [3] was 81.1% and the “Transmittance (%) With siRNA (peptide %/siRNA %) 0.5%/0.05%” value [3] was 77.3%. For the same molecule, the “Transmittance (%) Peptide alone 0.1% (w/v)” value [3] was 96.2%, the “Transmittance (%) Peptide alone 0.5% (w/v)” value [3] was 99.6% and the Nanostructure of peptide [1] was “nanospheric structures”.

In the case of AAAKAAA [A3KA3], the “Appearance of peptide mixed with siRNA” value [3] is reported as “transparent and substantially without phase separation”, the “Transmittance (%) With siRNA (peptide %/siRNA %) 0.1%/0.01%” value [3] is reported as 98.7% and the “Transmittance (%) With siRNA (peptide %/siRNA %) 0.5%/0.05%” value [3] is reported as 88.2%. The “Transmittance (%) Peptide alone 0.1% (w/v)” value [3] was 99.2%, the “Transmittance (%) Peptide alone 0.5% (w/v)” value [3] was 97.5% and the Nanostructure of peptide [1] was “nanospheric structures (spherical nanovesicles)”.

With Ac-AAAK-NH2 [Ac-A3K-NH2] the “Diameter of the nanospheres” value [1] was 28 nm and the Nanostructure of peptide [1] was “nanospheres”.
